The target in test [1] is T1, full length Shc (1 – 473) (Homo sapiens, UniProt P29353).
T1 construct: The vector of pET28a-full length Shc (1 – 473), generously provided by Dr. Ladbury; His-tag (N); made in house; host or cells: E. coli BL21 (DE3), pET28a (vector a gift from Dr. Ladbury)
T1 sequence (P29353 1-473 isoform P29353-2): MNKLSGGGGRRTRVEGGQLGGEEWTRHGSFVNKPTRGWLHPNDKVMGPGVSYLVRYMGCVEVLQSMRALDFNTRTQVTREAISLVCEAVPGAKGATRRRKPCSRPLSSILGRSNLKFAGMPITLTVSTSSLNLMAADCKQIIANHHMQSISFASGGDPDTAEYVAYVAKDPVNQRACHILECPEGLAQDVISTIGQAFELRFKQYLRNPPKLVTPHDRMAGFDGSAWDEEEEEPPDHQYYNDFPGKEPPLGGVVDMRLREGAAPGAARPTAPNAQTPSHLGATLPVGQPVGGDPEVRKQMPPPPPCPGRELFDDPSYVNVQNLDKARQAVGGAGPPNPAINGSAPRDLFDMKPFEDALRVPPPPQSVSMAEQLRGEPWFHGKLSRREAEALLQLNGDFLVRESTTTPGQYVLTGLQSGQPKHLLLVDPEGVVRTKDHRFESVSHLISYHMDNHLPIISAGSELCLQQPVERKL
Briefly: ITC binding to full length Shc. To be noted: full-length Shc titrated by bi-β3, Ins(1,4,5)P3 at 3 to 1. The method, then:
The Shc PTB domain (17 – 207) containing the pET15b vector was transformed into a Rosetta (DE3) cell line to pursue optimal expression levels. SH2 domain (380 – 473) was cloned into NdeI and XhoI sites in pET21b vector and then transformed into a BL21 (DE3) cell line. The vector of pET28a-full length Shc (1 – 473), generously provided by Dr. Ladbury (University of Texas MD Anderson Cancer Center, TX), was expressed in a BL21 (DE3) cell line as well. Typically, 10 ml overnight culture was used to inoculate 1 liter LB broth. Cells were grown at 37°C until OD600 reached 0.6. At this point the culture was cooled to room temperature and then the overnight overexpression was induced by 1 mM isopropyl-β-D-thiogalactopyranoside. Harvested cells were kept at −20°C for future purification or resuspended in lysis buffer supplemented with protease inhibitors. Cells were further lysed by french press and the cell debris was removed by centrifugation at 18,000 rpm at 4°C. […] The overexpression of the target protein and the purified protein were confirmed by SDS-PAGE and the bands of the expected mass were observed. […]
Calorimetric measurements of a full length Shc, PTB domain, and SH2 domain to β3 phosphopeptides or PtdIns were performed on a low volume Nano ITC (TA Instruments). […] The concentration of protein samples was determined by UV measurements. […]

Test [2] addresses T2, Shc PTB domain (17 – 207) (Homo sapiens, UniProt P29353).
T2 construct: The Shc PTB domain (17 – 207) containing the pET15b vector was transformed into a Rosetta (DE3) cell line; His-tag (N); made in house; host or cells: E. coli Rosetta (DE3), pET15b
T2 sequence (P29353 17-207 isoform P29353-2): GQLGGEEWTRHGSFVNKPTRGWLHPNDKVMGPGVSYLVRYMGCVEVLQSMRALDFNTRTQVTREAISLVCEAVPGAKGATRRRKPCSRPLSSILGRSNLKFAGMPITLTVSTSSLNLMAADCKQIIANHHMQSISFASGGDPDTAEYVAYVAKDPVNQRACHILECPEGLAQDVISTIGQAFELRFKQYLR
Briefly: ITC binding to Shc PTB domain. To be noted: PtdIns binding to PTB domain, ITC, 25°C. The method, then:
The Shc PTB domain (17 – 207) containing the pET15b vector was transformed into a Rosetta (DE3) cell line to pursue optimal expression levels. SH2 domain (380 – 473) was cloned into NdeI and XhoI sites in pET21b vector and then transformed into a BL21 (DE3) cell line. The vector of pET28a-full length Shc (1 – 473), generously provided by Dr. Ladbury (University of Texas MD Anderson Cancer Center, TX), was expressed in a BL21 (DE3) cell line as well. Typically, 10 ml overnight culture was used to inoculate 1 liter LB broth. Cells were grown at 37°C until OD600 reached 0.6. At this point the culture was cooled to room temperature and then the overnight overexpression was induced by 1 mM isopropyl-β-D-thiogalactopyranoside. Harvested cells were kept at −20°C for future purification or resuspended in lysis buffer supplemented with protease inhibitors. Cells were further lysed by french press and the cell debris was removed by centrifugation at 18,000 rpm at 4°C. […] The overexpression of the target protein and the purified protein were confirmed by SDS-PAGE and the bands of the expected mass were observed. The determination of protein concentration by UV measurement was consistent with Bradford assay.
Calorimetric measurements of a full length Shc, PTB domain, and SH2 domain to β3 phosphopeptides or PtdIns were performed on a low volume Nano ITC (TA Instruments). All experiments were carried out in a buffer of 50 mM Tris, pH 7.5, 100 mM NaCl, 5 mM β-mercaptoethanol (unless described otherwise) at 12°C or 25°C with a stirring speed of 250 rpm to minimize the precipitation of the protein. 300 second time intervals were set between injections. The concentration of protein samples was determined by UV measurements. The titrants (β3 phosphopeptides or PtdIns) were prepared in the same buffer by the dilution of higher concentration stocks. The concentrations of the protein ranged from 30 μM to 150 μM. The concentration of protein was examined after each ITC experiment by UV to ensure the stability of proteins under the test condition. The analysis of the data was done with Nano Analyze Software (TA Instruments) suite using an “independent” model.

Test [3] deals with T3, Shc PTB domain (17 – 207) (UniProt P29353-2 17-207).
T3 construct: Shc adaptor protein (p52 isoform), PTB domain, residues 17-207, from a pET15b vector; numbers count on: the p52 isoform (full length 1-473); 15N-labelled (M9 medium with 15NH4Cl) for the NMR experiments; Monomeric on Superdex-75; also called apo PTB domain; source: E. coli Rosetta (DE3), purified (Ni-NTA, Superdex-75)
T3 sequence (looked up): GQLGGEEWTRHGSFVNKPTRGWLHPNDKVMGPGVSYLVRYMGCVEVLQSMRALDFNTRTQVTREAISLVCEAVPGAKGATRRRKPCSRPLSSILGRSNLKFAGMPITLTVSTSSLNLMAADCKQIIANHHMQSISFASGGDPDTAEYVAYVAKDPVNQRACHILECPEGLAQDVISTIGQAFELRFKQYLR
The test can be described thus: ITC; Nano ITC; β3 phosphopeptide titrated into the Shc protein over-saturated by Ins(1,4,5)P3 at 3 to 1 lipid to protein ratio; 12°C. Particulars: both partners purified.

Test [4] deals with T4, full length Shc (1 – 473) (UniProt P29353-2 1-473).
T4 construct: Shc adaptor protein, full length 1-473 (printed length 473 residues, the p52 isoform), from a pET28a vector provided by Dr. Ladbury; numbers count on: the p52 isoform; Monomeric on Superdex-75; also called Shc full length; p52 Shc; source: E. coli BL21 (DE3), purified (Ni-NTA, Superdex-75)
T4 sequence (looked up): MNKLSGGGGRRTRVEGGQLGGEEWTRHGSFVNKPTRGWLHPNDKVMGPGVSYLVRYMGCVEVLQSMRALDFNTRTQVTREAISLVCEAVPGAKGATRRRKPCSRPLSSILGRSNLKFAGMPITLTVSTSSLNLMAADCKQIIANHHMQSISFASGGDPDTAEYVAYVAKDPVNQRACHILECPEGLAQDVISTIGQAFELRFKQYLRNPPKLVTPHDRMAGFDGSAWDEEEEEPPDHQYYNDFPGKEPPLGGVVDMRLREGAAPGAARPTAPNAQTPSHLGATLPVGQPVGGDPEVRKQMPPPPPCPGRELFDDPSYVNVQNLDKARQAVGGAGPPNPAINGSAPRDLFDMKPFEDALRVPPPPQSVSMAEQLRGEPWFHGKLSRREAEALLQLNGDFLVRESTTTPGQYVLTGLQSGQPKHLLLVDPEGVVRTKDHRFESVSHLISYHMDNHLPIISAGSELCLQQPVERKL
The test is described as above. Particulars: both partners purified.

Test [5] has as its target T3, Shc PTB domain (17 – 207). Briefly: ITC; Nano ITC; β3 phosphopeptide titrated into the Shc protein (30-150 μM); 25°C; 50 mM Tris, pH 7.5, 100 mM NaCl, 5 mM β-mercaptoethanol; independent model. Particulars: both partners purified.
Test [6] deals with T4, full length Shc (1 – 473). The description is as above. Particulars: both partners purified.
For test [7], the target named is T3, Shc PTB domain (17 – 207). Described as above. To be noted: both partners purified. This is another data set of the same source.
For test [8], the target named is T4, full length Shc (1 – 473). The test is described as above. Particulars: both partners purified. This is another data set of the same source.
Test [9] concerns the target T3, Shc PTB domain (17 – 207). Briefly: ITC; Nano ITC; β3 phosphopeptide titrated into the Shc protein (30-150 μM); 12°C; 50 mM Tris, pH 7.5, 100 mM NaCl, 5 mM β-mercaptoethanol; independent model. Particulars: both partners purified. For orientation: Isothermal titration calorimetry measures the heat released or taken up as one component is titrated into another.
Test [10] has as its target T4, full length Shc (1 – 473). The test is described as above. To be noted: both partners purified.

“Also recorded” adds a separate entry of the source. Where a SMILES comes first, the peptide text is derived from it. Where no end group is shown, it is not given here. [ ]: non-standard residue; d: D form. pY = N[C@@H](Cc1ccc(OP(=O)(O)O)cc1)C(=O)O

For the molecule `CC[C@H](C)[C@H](NC(=O)[C@H](CC(N)=O)NC(=O)[C@@H](NC(=O)[C@H](Cc1ccccc1)NC(=O)[C@@H](NC(=O)[C@H](CO)NC(=O)[C@@H](NC(=O)[C@H](C)NC(=O)[C@H](CCC(=O)O)NC(=O)[C@H](CCCCN)NC(=O)[C@H](Cc1ccc(OP(=O)(O)O)cc1)NC(=O)[C@H](CC(C)C)NC(=O)[C@@H]1CCCN1C(=O)[C@H](CC(N)=O)NC(=O)[C@H](CC(N)=O)NC(=O)[C@H](C)NC(=O)[C@@H](NC(=O)[C@H](CC(=O)O)NC(=O)[C@H](Cc1c[nH]c2ccccc12)NC(=O)[C@H](CCCCN)NC(=O)[C@H](C)NC(=O)[C@@H](N)CCCNC(=N)N)[C@@H](C)O)[C@@H](C)O)[C@@H](C)O)[C@@H](C)O)C(=O)N[C@H](C(=O)N[C@@H](Cc1ccc(OP(=O)(O)O)cc1)C(=O)N[C@@H](CCCNC(=N)N)C(=O)NCC(=O)N[C@H](C(=O)O)[C@@H](C)O)[C@@H](C)O` [bi-β3] (H-RAKWDTANNPL[pY]KEATSTFTNIT[pY]RGT-OH), the “change in Kd caused by Ins(1,4,5)P3” value in test [1] is listed as “slight reduction of Kd value”.

The term Kd denotes the free concentration of one partner at which half of the binding sites on the other are occupied at equilibrium, for simple one-to-one binding. As to “Phosphatidylinositol-5-phosphate [PtdIns(5)P1]”, in test [2] (50 mM Tris pH 7.5, 100 mM NaCl, 5 mM β-mercaptoethanol, "independent" model, dihexanoyl- or dioctonoyl- PtdIns), the Kd result is on record as “not able to detect the binding; also recorded: does not show to bind; also recorded: No binding”. For the same molecule, in test [2] (pH 7.5), the ΔG entry was “No binding”, the ΔH entry was “No binding” and the “−TΔS” value is “No binding”.

B1: c-β3: β3 integrin derived peptide phosphorylated at C-terminal tyrosine (Y759) (peptide)
peptide: ATSTFTNIT[pY]RGT
notes: integrin β3 cytoplasmic tail, residues 750-762, Y759 phosphorylated; also called mono-phosphorylated peptide; source: synthetic peptide (NEO-Peptide)
Usually stoichiometry N stands for a count of units in the complex or per binding partner. For B1, the Kd amounted to 1120 nM in [3]; 870 nM in [4]; 350 nM in test [5]; 1330 nM in test [6]; 340 nM in test [7]; 1050 nM in [9]. In addition, the Kd in test [10] was determined as 820 nM. Besides, the dH is -5.65 kcal/mol in test [3]; -5.05 kcal/mol in [4]; -6.07 kcal/mol in [5]; -1.77 kcal/mol in test [6]; -5.78 kcal/mol in test [9]; -5.03 kcal/mol in [10]. Also, the “stoichiometry N” value in [7] and in test [8] was 1 ± 0.15 throughout.

(Values after paper PMC4397963, “Phospho-Tyrosine(s) vs. Phosphatidylinositol Binding in Shc Mediated Integrin Signaling” (American journal of molecular biology, 2015).)
